Consider six molecules from patent US11440938B2, “Stabilized minimal coiled-coil mimetics” (NEW YORK UNIVERSITY, priority 2015, dated 2022).

The nature of series [1]: Circular dichroism spectroscopy of helical conformational stability. It counts as physicochemical. Conditions: 50 mM aqueous KF, pH 7.4, 20 μM peptide.
Series [2] deals with T1, fluorescein-labeled N2B peptide (NHR2-binding motif of E-proteins) (Homo sapiens, UniProt Q99081). Nature of the series: Fluorescence polarization direct binding assay with fluorescein-labeled N2B peptide (flu-N2B). As to conditions: 100 nM flu-N2B, 25° C., 10 mM Tris 20 mM NaCl pH 7.4, 0.1% pluronic F-68, triplicate, listed as NHR2482-551, read-out: Kd (binding affinity to fluorescein-labeled N2B peptide). (In general: Fluorescence polarisation rises when a labelled molecule tumbles more slowly, as on binding a larger partner.)

Series [3] addresses T1, fluorescein-labeled N2B peptide (NHR2-binding motif of E-proteins). As to conditions: Sun et al., Nature 500:93 (2013); read-out: KD with flu-N2B, literature reported; cited from earlier work.

Where “and” joins values, the source holds several entries; their conditions need not be identical. Equal values may be shown once. Read-outs that look alike come from different tables or passages of the source. Bridges are numbered along the chain shown (N, C = ends). Where no end group is shown, it is not given here.

On to “AB-1: HBS-A helix joined to peptide B by a GGSSGG linker; N-terminal HBS constraint (SEQ ID NO:3) (XELXELEWRLGGSSGGLAERIARLR; not fully specified; HBS constraint; Hydrogen bond surrogate peptide AB-1; (1)..(1) Xaa at position 1 is pentenoic acid; (4)..(4) Xaa at position 4 is N-allylalanine)”, for which, in series [1], the “Helical character by CD (in words)” value is on record as “weakly helical signature”, the “Minimum at 222/208 (ratio of CD bands)” value amounted to 0.73 and the “|θ222| (CD ellipticity at 222 nm)” value turned out to be 8475.
For Ac-ELAELEWRL-NH2, the “Helical character by CD (in words)” value in series [1] is “nonhelical signatures”.
For the molecule Ac-LWERIARLR-NH2 [B], the “Helical character by CD (in words)” value in series [1] is reported as “nonhelical signatures”.
“ECAELEWRLGGSSGGLAERIARCR (disulfide 2-23; not fully specified (N-terminus, C-terminus)) [AB-3]”: in series [1], the “Helical character by CD (in words)” value is “did not provide significant helical stabilization”, the “Minimum at 222/208 (ratio of CD bands)” value is 0.62 and the “|θ222| (CD ellipticity at 222 nm)” value amounted to 9460.
For “cyclo(GGSSGGELAELEWRLGGSNGGLAERIARLR (macrocyclic; Cyclic peptide AB-2; (1)..(1) Position 1 and 30 are linked by a peptide bond to form a cyclic peptide; (30)..(30) Position 1 and 30 are linked by a peptide bond to form a cyclic peptide)” the same measures were “minimal helicity”, 0.62 and 8950.

B1: NHR2: native GST-tagged NHR2 coiled-coil domain (482-551) of AML1-ETO, expressed in E. coli (protein, UniProt Q06455 482-551, looked up, fragment)
chain: ERAKMERTVAEAKRQAAEDALAVINQQEDSSESCWNCGRKASETCSGCNTARYCGSFCQHKDWEKHHHIC
modifications: NHR2 coiled-coil domain GST tag
notes: native GST-tagged NHR2 coiled-coil domain (482-551) of AML1-ETO, expressed in E. coli
Regarding B1, the Kd (in general, the equilibrium constant for the complex coming apart) is 356 µM and 363 µM in series [2]; 380 ± 18 µM in series [3].
